We go through 6 molecules from article PMC3422223 (PLoS ONE, 2012).

B1: 18V4F Fab variant d7 (Fab, V domains shown)
VH: EVQLVESGGGLVQPGGSLRLSCAASGFSLYDEGAHWVRQAPGKGLEWVGVIWPGGGTNYNSALMSRFTISKDNSKNTVYLQMNSLRAEDTAVYYCARGPLITTEVSMDYWGQGTLVTVSS
VL: SAEVTQPPSVSVSPGQTARITCSSNTGAVTTSNYANWVQQKPGQAPVGLIGGTNERPSGIPERFSGSSSGNTATLTISGAQAEDEADYYCALWYSNHWVFGGGTKLTVL
B2: 18V4F Fab variant d5 (Fab, V domains shown)
VH: B1 VH with Y30T, D31G, E32Y, G33A, A34M
VL: B1 VL with G27P, A28L, V29R, T30P, T31Y, S32R
B3: d5d7 Fab (Fab, V domains shown)
VH: B1 VH
VL: B1 VL with G27P, A28L, V29R, T30P, T31Y, S32R
notes: also called 18V4F Fab variant d5d7; not shown: His6, C-terminal, kept
B4: humanized 18V4F Fab (Fab, V domains shown)
VH: B1 VH with Y30T, D31G, E32Y, G33A, A34M
VL: B1 VL
notes: also called Hu-18V4F
B5: 18V4F hybridoma antibody (murine IgG2a/lambda) (antibody, V domains shown)
VH: QVQLKESGPGLVAPSQSLSITCTVSGFSLTGYGIHWVRQPPGKGLEWLGVIWPGGGTNYNSALMSRLSISKDNSKSQVFLKMNSLQTDDTAMYYCARGPLITTEVSMDYWGQGTSVTVSS
VL: QAVVTQESALTTSPGETVTLTCRSNTGAVTTSNYANWVQEKPDHLFTGLIGGTNNRAPGVPARFSGSLIGDKAALTITGAQTEDEAIYFCALWYSNHWVFGGGTKLTVL
B6: murine 18V4F Fab (Fab, V domains shown)
VH: B5 VH
VL: B5 VL
notes: also called Mu-18V4F

Residue numbers refer to the chain shown, from its start.

T2 sequence (P10147 24-92): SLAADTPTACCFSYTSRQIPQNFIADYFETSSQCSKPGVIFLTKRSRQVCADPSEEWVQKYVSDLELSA

For the first assay, the target named is T1, CCL5 (Homo sapiens, UniProt P13501, biotin (sulfo-NHS-LC-biotin) in the Biacore and streptavidin-plate ELISA experiments; not biotinylated where coated directly). Nature of the assay: cell-based or functional assay.
T1 sequence (P13501 24-91): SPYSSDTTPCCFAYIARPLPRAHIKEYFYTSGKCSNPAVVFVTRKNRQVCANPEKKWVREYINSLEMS
Conditions: not given
As for B1, the “IC50 of inhibition of chemotaxis of CCR5-transfected Ba/F3 cells to 5 ng/mL CCL5 (blocks CCL5 with CCR5)” value (shortened to “IC50 of inhibition … (blocks CCL5 with CCR5)”) amounted to 4.1 nM.

With B2, the “IC50 of inhibition … (blocks CCL5 with CCR5)” value was found to be 105 nM.

For the molecule B3, the “IC50 of inhibition … (blocks CCL5 with CCR5)” value amounted to 0.9 nM.

Regarding B4, the “IC50 of inhibition … (blocks CCL5 with CCR5)” value is more than 1000 nM.

B5: the “IC50 of inhibition … (blocks CCL5 with CCR5)” value is more than 1000 nM.

Another assay has as its target T2, CCL3 (Homo sapiens, UniProt P10147, biotin (sulfo-NHS-LC-biotin) in the Biacore and streptavidin-plate ELISA experiments; not biotinylated where coated directly). Nature of the assay: cell-based or functional assay.
Conditions: not given
As for B1, the “IC50 of inhibition of chemotaxis of CCR5-transfected Ba/F3 cells to 5 ng/mL CCL3 (blocks CCL3 with CCR5)” value (“IC50 of inhibition … (blocks CCL3 with CCR5)” below) was 18 nM.

As to B2, the “IC50 of inhibition … (blocks CCL3 with CCR5)” value came to 187 nM.

Take B3: the “IC50 of inhibition … (blocks CCL3 with CCR5)” value came out at 1 nM.

With B4, the “IC50 of inhibition … (blocks CCL3 with CCR5)” value is more than 1000 nM.

For the molecule B5, the “IC50 of inhibition … (blocks CCL3 with CCR5)” value came out at 196 nM.

For another assay, the target named is T3, CCL4 (Homo sapiens, UniProt P13236, biotin (sulfo-NHS-LC-biotin) in the Biacore and streptavidin-plate ELISA experiments; not biotinylated where coated directly). Nature of the assay: cell-based or functional assay.
T3 sequence (P13236 24-92): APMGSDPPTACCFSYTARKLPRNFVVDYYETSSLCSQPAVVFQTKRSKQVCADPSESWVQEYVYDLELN
Conditions: not given
Consider B1, for which the “IC50 of inhibition of chemotaxis of CCR5-transfected Ba/F3 cells to 5 ng/mL CCL4 (blocks CCL4 with CCR5)” value (from here on “IC50 of inhibition … (blocks CCL4 with CCR5)”) amounted to 0.6 nM.

With B2, the “IC50 of inhibition … (blocks CCL4 with CCR5)” value worked out at 49 nM.

Consider B3, for which the “IC50 of inhibition … (blocks CCL4 with CCR5)” value was 0.2 nM.

Turning to B4, the “IC50 of inhibition … (blocks CCL4 with CCR5)” value is more than 1000 nM.

As to B5, the “IC50 of inhibition … (blocks CCL4 with CCR5)” value was 185 nM.

In another assay the target is T1, CCL5. Briefly: SPR; Biacore 2000; biotinylated CCL3, CCL4, CCL5 immobilised on a streptavidin chip (~100 RU); Fabs flowed over at 500 pM to 1 µM; regeneration 10 mM glycine pH 1.5; triplicate; 1:1 Langmuir fit, murine and humanized 18V4F Fabs fit to a steady state model. To be noted: both partners purified. On the technique in general: SPR reads the build-up and loss of mass on a sensor chip optically.
Take B2: the equilibrium dissociation constant (Kd) (as a rule, the equilibrium constant for the complex coming apart) was 5.5 nM; the koff (commonly the rate constant with which the complex falls apart) was 0.0014 s⁻¹; the association rate constant (kon) – broadly, the second-order rate constant of association – came to 340000 M⁻¹ s⁻¹.

On to B4, for which the dissociation constant (Kd) was found to be 187 nM.

As for B6, the Kd turned out to be 50.3 nM.

The target of the next assay is T2, CCL3. The description is as above. To be noted: both partners purified.
For B1, the equilibrium dissociation constant (Kd) turned out to be 35 nM, the koff came out at 0.0033 s⁻¹ and the kon is 110000 M⁻¹ s⁻¹.

The molecule B2 had a Kd of 30.4 nM, a koff of 0.0031 s⁻¹ and a kon of 100000 M⁻¹ s⁻¹.

B3 came in with a dissociation constant (Kd) of 8.5 nM, a koff of 0.0054 s⁻¹ and an on-rate (kon) of 80000 M⁻¹ s⁻¹.

B4 gave a Kd of 272 nM.

For B6, the Kd is 209 nM.

The target of a further assay is T3, CCL4. The description is as above. To be noted: both partners purified.
For the molecule B1, binding was characterised by a dissociation constant (Kd) of 7.3 nM, the koff is 0.0004 s⁻¹ and the kon is 60000 M⁻¹ s⁻¹.

B2: the Kd was 15.9 nM, the koff was 0.0012 s⁻¹ and the kon is 70000 M⁻¹ s⁻¹.

In the case of B3, the Kd was found to be 1.8 nM, the off-rate constant (koff) worked out at 0.0036 s⁻¹ and the kon amounted to 380000 M⁻¹ s⁻¹.

Molecule B4 came in with a Kd of 251 nM.

B6 had an equilibrium dissociation constant (Kd) of 103 nM.
